Measurements from article PMC5493754, “Myosin 7 and its adaptors link cadherins to actin” (Nature Communications, 2017).

B1: Harmonin-a PDZ3c (non-fluorescent, as used in MST) (domain or fragment, human, UniProt Q9Y6N9-1 428-552, looked up)
chain: QDFRKYEEGFDPYSMFTPEQIMGKDVRLLRIKKEGSLDLALEGGVDSPIGKVVVSAVYERGAAERHGGIVKGDEIMAINGKIVTDYTLAEAEAALQKAWNQGGDWIDLVVAVCPPKEYDDELTFF
notes: Harmonin-a1 (USH1C), human, PDZ3 plus C-terminal peptide, residues 428-552 of UniProt Q9Y6N9-1; The methods say only that samples for ITC or crystallisation were digested with TEV protease; also called PDZ3c (isoA); source: E. coli BL21 (DE3) Rosetta, purified (Glutathione Sepharose 4B, size-exclusion chromatography)
B2: YFP-Harmonin-a PDZ3c (domain or fragment, human, UniProt Q9Y6N9-1 428-552, looked up)
chain: B1 chain
notes: Harmonin-a1 (USH1C), human, residues 428-552 of UniProt Q9Y6N9-1; also called ^YFPPDZ3c (isoA); source: E. coli BL21 (DE3) Rosetta, purified (Glutathione Sepharose 4B, size-exclusion chromatography)

Experiments:
Settings in all cases: both partners purified
[1] = target: T1, YFP-Full length (FL)-harmonin (harmonin-a1) (human, UniProt Q9Y6N9-1 1-552); test: MST; as a1 but 150 mM NaCl (for FL-Harmonin-a); YFP-fused partner constant at 100 nM, non-fluorescent protein titrated
T1 construct: Harmonin-a1 (USH1C), human, residues 1-552 of UniProt Q9Y6N9-1; also called ^YFPFL (isoA); ^YFPFL; source: E. coli BL21 (DE3) Rosetta, purified (Glutathione Sepharose 4B, size-exclusion chromatography)
T1 sequence (looked up): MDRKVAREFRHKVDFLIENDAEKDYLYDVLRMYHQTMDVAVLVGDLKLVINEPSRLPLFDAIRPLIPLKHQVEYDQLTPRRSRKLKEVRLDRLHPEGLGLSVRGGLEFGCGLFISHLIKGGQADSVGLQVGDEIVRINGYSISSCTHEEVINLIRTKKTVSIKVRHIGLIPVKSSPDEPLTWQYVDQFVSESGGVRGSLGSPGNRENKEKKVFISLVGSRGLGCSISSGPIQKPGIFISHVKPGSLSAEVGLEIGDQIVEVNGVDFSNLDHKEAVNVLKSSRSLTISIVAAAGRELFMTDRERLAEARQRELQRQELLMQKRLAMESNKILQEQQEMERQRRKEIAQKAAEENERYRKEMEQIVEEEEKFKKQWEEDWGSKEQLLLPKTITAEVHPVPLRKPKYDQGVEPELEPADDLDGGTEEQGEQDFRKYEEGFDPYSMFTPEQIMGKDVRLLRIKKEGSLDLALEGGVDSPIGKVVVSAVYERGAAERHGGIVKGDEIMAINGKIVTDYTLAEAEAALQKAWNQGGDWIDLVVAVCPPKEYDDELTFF

[2] = target: T2, FL-harmonin-ΔCter (human, UniProt Q9Y6N9-1 1-542); test: as above
T2 construct: Harmonin-a1 (USH1C), human, residues 1-542 of UniProt Q9Y6N9-1; also called FL ΔCter; source: E. coli BL21 (DE3) Rosetta, purified (Glutathione Sepharose 4B, size-exclusion chromatography)
T2 sequence (looked up): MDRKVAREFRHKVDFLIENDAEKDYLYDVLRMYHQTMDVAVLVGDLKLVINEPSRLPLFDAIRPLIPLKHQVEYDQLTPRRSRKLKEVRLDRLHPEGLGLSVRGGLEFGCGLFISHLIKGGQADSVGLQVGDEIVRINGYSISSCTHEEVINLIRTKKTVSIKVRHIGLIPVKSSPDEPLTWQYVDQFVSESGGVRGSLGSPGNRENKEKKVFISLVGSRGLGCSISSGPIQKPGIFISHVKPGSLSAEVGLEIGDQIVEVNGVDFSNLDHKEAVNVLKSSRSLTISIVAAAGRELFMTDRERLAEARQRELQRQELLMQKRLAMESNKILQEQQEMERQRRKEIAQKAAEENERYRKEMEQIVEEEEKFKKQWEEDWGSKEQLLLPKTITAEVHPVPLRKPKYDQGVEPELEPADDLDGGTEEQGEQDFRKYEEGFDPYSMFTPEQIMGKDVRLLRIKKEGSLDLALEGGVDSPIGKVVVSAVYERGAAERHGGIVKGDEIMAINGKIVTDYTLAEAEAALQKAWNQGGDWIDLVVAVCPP

[3] = target: T3, Full length (FL)-harmonin (harmonin-a1) (human, UniProt Q9Y6N9-1 1-552); test: as above
T3 construct: Harmonin-a1 (USH1C), human, residues 1-552 of UniProt Q9Y6N9-1; also called FL-harmonin-a; source: E. coli BL21 (DE3) Rosetta, purified (Glutathione Sepharose 4B, size-exclusion chromatography)
T3 sequence (looked up): T1 sequence (looked up)

[4] = target: T4, Myo7a MF2 K2118N (deafness mutant) (human, UniProt Q13402-1 1702-2215, K2118N); test: MST; YFP-fused partner constant at 100 nM, non-fluorescent protein titrated (16 two-fold dilutions); 20 mM Hepes pH 7.0, 100 mM NaCl, 1 mM EGTA, 0.5 mM TCEP, 0.05% Tween 20; Monolith NT.115
T4 construct: Myosin 7a, human, MF2, residues 1702-2215 of UniProt Q13402-1, with a deafness missense mutation; source: E. coli, purified similarly as wild type (Histrap, CaptoQ, gel filtration)
T4 sequence (looked up): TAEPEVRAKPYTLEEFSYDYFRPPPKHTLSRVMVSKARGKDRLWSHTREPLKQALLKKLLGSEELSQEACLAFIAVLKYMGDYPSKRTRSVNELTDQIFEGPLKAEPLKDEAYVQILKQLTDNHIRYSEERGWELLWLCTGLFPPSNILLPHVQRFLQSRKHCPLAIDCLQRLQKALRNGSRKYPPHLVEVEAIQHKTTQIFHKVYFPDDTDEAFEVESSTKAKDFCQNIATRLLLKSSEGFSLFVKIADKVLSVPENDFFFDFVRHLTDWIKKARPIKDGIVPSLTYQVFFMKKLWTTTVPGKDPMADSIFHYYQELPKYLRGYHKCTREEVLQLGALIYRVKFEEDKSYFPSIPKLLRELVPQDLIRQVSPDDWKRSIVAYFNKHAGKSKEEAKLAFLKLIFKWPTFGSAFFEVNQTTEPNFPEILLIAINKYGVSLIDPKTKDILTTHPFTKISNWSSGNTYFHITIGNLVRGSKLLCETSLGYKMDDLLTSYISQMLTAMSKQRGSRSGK

Binder	Kd [1]	Kd [2]	Kd [3]	Kd [4]
B1	1400 nM			
B2		2300 nM	1900 nM	> 60000 nM
